This series can be described thus: label from the status in PepcDB records.

For the sequence “MGSKKQIRVQNISHDNIYSGLRCFVDGSWKGSDKFSGLGWFCRSSNGDSPTMGAANLRRSLYPLHTEVEALLWSMKCMIGADNQEVAFFTDYSDLVKMVSSPTE”, the protein production result is recorded as “failed”. Then “MGSLMSGWDSRVRDPKSVRRCKSLTREEIDTFWKTKKKNEEEEHVQAFSKLVTQEGAQSQAKEKKSVDDLFENQSKSSGWWRKTYWAFLNEPREEEGRPNNYVSQFKVAHIAKIAGS”, with “failed”; and “MGSRLAESSTPMKACEEVGRPSFTSEQTASSCVIDVRDNARISSASSDGTEVESVGTAIKGELDRTARPTFTAGKNKSVRFECDLDQSNSSNSSENGSSRKPEMGGKICFTVSSPNPTPLKLSDEMQTPGTIYPANMESGGRGRPRIRSQFVHSVSNIMENASLYKVYKDSHEGLDYEEQIEAETPSSETYGEKVEESSDEKLSKFEASFSPWLNQINENIAALNERTPGVGVITPGDRPIIGLVAAQWIENEQTEISPKMWDGNGIPNSTTKYKEDQKVSWHATPFEVRLEKALSEEGGQSLFPQRKLEVMMEEVEGDTDISQLHHSVQPNSVVSF”, with “failed”; and “MGSSHHHHHHSSGLVPRGSHMFKLTPAAAEQVLKAAKQGGTEGMCLRLAAGRNPDGSIDYRMGFDDLTEDDIRLTSEGVEIVIAPDYVSLLDQTTLDYVELEPGQFHFIFLNPRDPTYRPPSGG”, with “not failed”. Then “MGSSHHHHHHSSGRENLYFQGMTKNTRFSPEVRQRAVRMVLESQGEYDSQWATICSIAPKIGCTPETLRVWGRQHERDTGGGDGGLTTAERQRLKEPERENRELRRSNDILRQASAYFAKAEFDRLWKK”, with “not failed”; and “MGSSSSFSSSSSKLLFRQLFENESSTFTYLLADVSHPDKPALLIDPVDKTVDRDLKLIDELGLKLIYAMNTHVHADHVTGTGLLKTKLPGVKSVISKASGSKADLFLEPGDKVSIGDIYLEVRATPGHTAGCVTYVTGEGADQPQPRMAFTGDAVLIRGCGRTDFQEGSSDQLYESVHSQIFTLPKDTLIYPAHDYKGFEVSTVGEEMQHNPRLTKDKETFKTIMSNLNLSYPKMIDVAVPANMVCGLQDVPSQAN”, with “not failed”; and “MGSSSYAVIPGAAPRSGRRSIRAVLVLALTAGVATVVPAAQADTSTPAAAPVAAKPYMGWSSWSMQSSKYPGLNPDGDYSYLTEANVLKQTDALASKLKKYGYDHVNIDAGWWMDKNWKTQFDQYGRQTPDPVRFPHGMKSVADHIHSKGLKAGIYLPVGLEKGAYGDGKTPISKAPGCTTADIVYSDLRTTNGWDNAYKIDFDKSCAQKYIDSQAQMFADWGYDFLKLDGVGPGSFKSGDNYNNVADVAAWQKAIAATGRPIHLELSWSLDIGHAADWKKYSNGWRIDTDIECYCNTLVTWENSVNDRWDDAPAWSSKAGPGGWNDLDAIDVGNGEMDGLTKAERQSYMTLWAINKSPLFTGDDLTKLDSYGVSLLTNKEVIAVDQNTSPVARPVTPVGDQQVWGTKNADGSYTVALFNLGDSPASVTAHWASFGFTGNASVRDLWNKTNLGTHKNKITEALPAHGSRLFTIKPGGGTLATTGYEAEAAANTLSGNASVGGCDACSGGKKVGNLYTGGKLRINDITVKKDGIYTVKVAYVSGDPRSVTVLSNSGNGTSLKFPSTGDWSTAETVSVQLALKAGSNTITFDSGSGYAPDIDRIVVPQSV”, with “failed”. For “MGTAMRSVAWGLAIALWPIAVWAENPEDLQRLLTTRQCERCDLQDSGLVLARLSGARLTGSNLQRANLSGADLSGADLRQTDLRGASLQRANLAGANLTGARLDGVDLREAWLTEAILTPQQLALAHIQGAQGLDVTALPFERYQAWGIEAIQAGRFERAISYFDLALQRNPKSASTYLSRAIAYQGLGRSEQAIADAQAAEQLYKSQQNPEGEKRSQELRTTIVAAQERVASSGSNGGNGGGSAALAVLTGIVQGVLPFLLGFPF”, the protein production entry is “failed”.

Consider “MGTEERKARQKRYPPVLQDSGERPRRRFPYVSRSFVPSVFTVMNMVSGYVSIVMAGEGSFVIAGWLIFLAAFFDTIDGFVARLTNSSSEFGVELDSLSDLVSFGAAPAYLVYKFGLEHIGMPWGLLLSSLLMVGSGLRLARFNINLIDYHKDSFSGLPTPAQAMTVASFVLWMSVEPLFTELALQKVLMVLSVLLATLMVSKVNYDALPKPTLESFRSHPVQMILYVIAIFCVLVFQAKAFFVAMLLYILLGIVRSLTRTVQEWQL”, for which the protein production entry is given as “failed”. As to “MGTKRIGILTSGGDCPGLNAVIRAVVKASALKGWEVYGIPYGTDGFVEVAHGKYQAEDLLLTKHGYALPGMLKGLDVLQFLSGSVLGSLSKGHPEQPAIAEAILKGYAILDLEALIVIGGDGSLDIIYDLAQKGNWHIIAIPKTIDNDVPFTDLAVGFSTAVDIVTQALYDLTFTAASHERIIIVQVMGRDAGHLTLHAGIAGGADIILIPEITPCLTSEIIRNCCYQLMNLRKSGRHFALIVISEGVHDQNNKKNKHIADYLAEEISETSQHLCDIKDPAFCDLISLDIRATTLGHLQRSGTPLSFDRLLATVFGIRAVELIEQEIYDQVVIWRSGKVEHADLKPIISIIKECHQENRCPFPVDRDGFMVKTAKSLGIYLGED”, the protein production result is listed as “failed”.

Turning to “MGTLTCKDLNHKYRDTTMYKQQQIKQWFCGLSSITCQHISDWQKPHLGVLCAASAFLVLAAPVVNLPGSKLLAQTPISRDLETASFYQQGVTRYNRSDWQGAENAFRQALQREPNLAMARAYLGNIYLMQNRLDVAVQEYGEAIRLNPNLGETYYNLGLALQQQGKKEGAITAYRQALVIDPRRVEAYYNLGLVLYEQGLLQEAIAAYQDAVNLEPSKINAHHNLAIALQQTGKMEEAIVAYREVLKLDPKNAAAYSSLGSLMAMQGRPEEAIAAYTQAVRQDPKNALAYYNLGITLYNQGELQKASNAFKRAQEEYSQQGNLEQTEKTEQLMQQVAQKIEEQKLQQRQASTPKPTDNSTNNLLEKLTQLTAPKEQPANSGAVPVSDEQKQFPPIFPNTNSR”, the protein production entry is “failed”. For “MGTMNVVGLAIYLYAGFLSFIFGFISLYAFIKYSKLERKNKEIIYVYVDNLKNFSPYMFYSILLTFTIVFVIFALFICFVFNFDLYLGLTMLFSYFLIIYLFCFKKYRVEIYKDGFYGVFQN”, the protein production result was “failed”.

As to “MGTPNDQAVLQAIFNPDTPFGDIVGLDLGEEAEKEEREEDEVFPQAQLEQSKALELQGVMAAEAGDLSTALERFGQAICLLPERASAYNNRAQARRLQGDVAGALEDLERAVELSGGRGRAARQSFVQRGLLARLQGRDDDARRDFERAARLGSPFARRQLVLLNPYAALCNRMLADMMGQLRRPRDSR”, the protein production entry was “failed”. Regarding “MGTTVMVPIYTSTAAASPYSINLASMPPKTVLSKGDEEIAAIALPRQPKFYDLKTADGIPYSHIALLHSNNVLATTVQQTCIRYRDESTVCQFCAIEKSLDAGRTITRKLPEQLAEVTEAAVRLDGIEQVIMTTGTPNSGDRGAAYLTKCAAAIKARVNIPIQAQCEPPDDFIWFERMKAAGVDSLGMHLEAVDPDVRAKIMPGKAEVPVSYYYEAYEAAVKVFGWGQVSTYLLAGLGDSFETLVEASEKLVNMGVYPFVVPFVPISETPLANHPAPDSDFMFALYQRVGTIIKQSQISSVDMKAGCAKCGACSALSTFAKLEHHHHHH”, the protein production result is “failed”. For “MGVALAAMCLMSAQAQRRNEIQVPNLNGYTTLKCDFHMHSVFSDGLVWPTVRVDEAYREGLDAISLTEHIEYRPHKKDIIADHNRSYELSQKQAKKLGILLIRGSEITRSMPPGHFNAIFLNDSNPLEQKAYKDAFNEAKKQGAFIFWNHPGWARQQPDSTLWWPEHTQLYNDGCMHGIEVANGGLFMPEAIQWCLDKNLTMIGTSDIHQPIQTDYDFSKGEHRTMTFVFAKERSPEGIREALDNRRTAVYYRELVIGREEILRPFFEKCVDIKEVKRTEKEVTFSVMNATDLVLKLKKTAHDPSLVYFREMTLKPHTQHTISVKFDNGIKGGDCNFEVTNFIVAPDKGLDYTIKL”, the protein production entry is “not failed”. Regarding “MGVVHHSVYAVYLEAARVDFLERAGLPYHRVEARGVFFPVVELGLTFRAPARFGEVVEVRTRLAELSSRALLFRYRVEREGVLLAEGFTRHLCQVGERAARIPEDIYRALSVLHLK”, the protein production entry was “not failed”. The same measure for “MGYRRFLQLVAHEFFHLWNVKRIRPKALEQFDYEAENYTPSLWFSEGATSYYDLLLPLRAGLYGVDSFLEALGKDLSRYLTTPGRKVQPLAESSFDAWVKLYRRDAYSDNQQMSYYLKGQLVCWLLDLEIRNHQPDLEHHHHHH”: “not failed”; for “MHEFSTVDGFAEINESLAEMIKYIANEPSVGLYYIQQHIRNAAPNVINLNNNVLEKSRETGLHTEDLEDSIAMVKSMKDCGSPIADEMIGDIKNSLAIMSSKQPRRGVILNSTSPWSRSSSITTRTRGSDNSQDNSESSNYFTSVFMTAKEKASNIKWPQLDFKEQKSEADPNVQSNELKEEEEEDSGKGEHIVETTKFEEFKAGKEASLKAWLGDMDGNVDVGGRVAERI”: “not failed”.

In the case of “MHELSISRHIAAPPGKVWDVLANRQEEWWCPRPWWITLIAQERRPGGRSAMVMHGPDGEEMPQEGIFLAWDEGHRFVTTDAVTADFLPAGPFMVGIWEVEPEGEGTRYTASARHWTEEAMREHAEMGFEAGWNACADQLQALCEAD”, the protein production result is reported as “failed”.

Turning to “MHEYSVVSSLIALCEEHAKKNQAHKIERVVVGIGERSAMDKSLFVSAFETFREESLVCKDAILDIVDEKVELECKDCSHVFKPNALDYGVCEKCHSKNVIITQGNEMRLLSLEMLAE”, the protein production result is recorded as “failed”. Regarding “MHFSKEHINALETRTRAHFINSLSGFKSANLIGTQDRQGNTNLSIVSSVIHLGANPPLMGMIIRPHSVPRHTFENIMQTGLYTINHVNQSIYEQAHQTSARYDKDESEFEATGLTPEYLSDFCAPFVKESRLKYSVKLVEHQHLAINGTEFVIGEIVDVYVDDNAVQTDGFIDLQAIDTVAISGLDCYYTGDKLARLPYAKK”, the protein production result is recorded as “not failed”. Then “MHGIDLHTHSNISDGTLSPSCLVDAAIACGIHTLALTDHDTMDGLETAIQQAQGHDIQIISGAEISSQWSRPNTKKAYGVHIVALNMQNPEPLLDALVIQKNIRAERAQQICQILQQCTGQDIYTDVLLKVEGEPDRITRTHIAKALVEKEIVARPQQAFDRFLKEGKRAYVKFDGLNLADTIRIIHESEGFAILAHPTRYDLSSTNVRYLIELFAKMGGDAVELPPSVDPVSTRQMIDRIIQQFDLKVSIGSDFHG”, with “failed”; and “MHGLLPALKRGFKRWIGWRRLGIAASVFIIAFAITTLVRTLKGIDTGVILTALTEIPRGNIGLAAICVFFAFCTLTFYDFFALRTIGKKHVPYRIAALSSFTSYSIGHNIGATVFTGGAIRFRIYSDYGLNAIDVAKICFLSGLTFWLGNIFVLSIGMAVHPDAASSMDQLPSSINRLIALGGLASIGAYLVWLCMGEKRRELGQKGWKVVLPSAPLTLVQILIGVVDLGFCATAMYLLIPATPPIDFLSLAVVFILATLLGFASHAPGSIGVFDAAMLVALPEFGREQLLATLLVFRLLYFVIPFGLAISIMGTRELWMNVVEPWQERRRLAEACAQANLPKQVAAMERERSLRQASKR”, with “failed”. With “MHIHILGICGTFMGGIAAIARNAGHTVTGCDANVYPPMSDQLRALGIELTEGWDAGQVRLEPDAFVVGNVVTRGNPLMEAILERGLPYTSGPQWLADNVLRDKWVLAVAGTHGKTTTSAMLAWILEDARLHPGFLVGGIPQNFGLSARLTDSPFFVIEADEYDTAFFDKRSKFVHYRPRTAILNNLEFDHADIFPDIQAIETQFHHLVRTIPGNGLIVANGREAALDRVLERGLWTPVERFGSIGGWTAGEADASGSFDVHFNSALQGRVRWELIGEHNRMNALAAIAAARHAGVPAAAAIDALSRFENVKRRMEIRGAVHGITVYDDFAHHPTAITTTVQGLRAKVGNARILAVLEPRSNTMKLGVMKDALPASLAGADEVYCYGANLGWDAAEALAPLGEKARVFDNLDKLVAQLVADGRPGDHVLMMSNGGFGGIHAKLLDALHHHYHEEIVLTPMHRYGGYA”, the protein production result was “failed”.
